“And” between values parts separate entries of the source, which are not always exact repeats. Equal entries are not always repeated.

The target in data set [1] is T1, MenF, isochorismate synthase from E. coli MG1655 (purified, N-terminal His tag) (Escherichia coli, UniProt P38051).
T1 sequence (P38051 1-431): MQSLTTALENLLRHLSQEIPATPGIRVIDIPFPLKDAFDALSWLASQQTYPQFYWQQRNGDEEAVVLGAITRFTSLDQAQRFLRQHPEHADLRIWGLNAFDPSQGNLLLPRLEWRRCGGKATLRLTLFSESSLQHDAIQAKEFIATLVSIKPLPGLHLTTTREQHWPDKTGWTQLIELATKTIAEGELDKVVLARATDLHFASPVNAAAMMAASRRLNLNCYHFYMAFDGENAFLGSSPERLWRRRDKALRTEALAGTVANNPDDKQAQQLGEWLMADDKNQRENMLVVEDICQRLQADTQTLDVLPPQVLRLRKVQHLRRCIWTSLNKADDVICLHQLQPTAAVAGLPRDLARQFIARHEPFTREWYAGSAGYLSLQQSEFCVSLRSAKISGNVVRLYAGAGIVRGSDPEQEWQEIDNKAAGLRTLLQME
The data set can be described thus: ICS coupled enzyme assay, MenF (with PaPchB, salicylate accumulation by HPLC). To be noted: chorismic acid, pH 7.5, 30° C., 0.1 μM enzyme, mean ± s.d., n = 2.

The target of data set [2] is T2, EntC, isochorismate synthase from E. coli MG1655 (purified, N-terminal His tag) (Escherichia coli, UniProt P0AEJ2).
T2 sequence (P0AEJ2 1-391): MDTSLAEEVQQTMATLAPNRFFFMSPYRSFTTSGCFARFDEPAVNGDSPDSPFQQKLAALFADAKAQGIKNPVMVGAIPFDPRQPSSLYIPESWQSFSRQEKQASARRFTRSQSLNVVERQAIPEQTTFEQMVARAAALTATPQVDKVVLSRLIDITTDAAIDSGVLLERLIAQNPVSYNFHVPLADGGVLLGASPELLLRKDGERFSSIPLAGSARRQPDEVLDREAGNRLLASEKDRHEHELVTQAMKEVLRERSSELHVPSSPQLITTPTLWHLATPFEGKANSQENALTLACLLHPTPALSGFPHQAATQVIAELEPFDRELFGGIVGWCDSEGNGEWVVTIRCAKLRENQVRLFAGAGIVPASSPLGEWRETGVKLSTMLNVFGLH
As to the kind of experiment: ICS coupled enzyme assay, EntC (with PaPchB, salicylate accumulation by HPLC). Particulars: chorismic acid, pH 7.5, 30° C., 0.1 μM enzyme, mean ± s.d., n = 2.

Data set [3] concerns the target T3, PchA, isochorismate synthase from Pseudomonas aeruginosa PAO1 (purified, N-terminal His tag) (Pseudomonas aeruginosa, UniProt Q51508).
T3 construct: coupled with PaPchB
The data set is classed as biochemical. To be noted: chorismic acid, pH 7.5, 30° C., mean ± s.d., n = 2.

Another data set has as its system O=C(O)c1ccccc1O. The data set can be described thus: purified protein, by the assay type. To be noted: other: MdpB2, salicylate, pH 7.5, 30° C., mean ± s.d., n = 2.
Substrate in data set [4]: C=C(O[C@@H]1C=C(C(=O)O)C=C[C@H]1O)C(=O)O
The data set can be described thus: purified protein, by the assay type. Particulars: chorismic acid, pH 7.5, 30° C., mean ± s.d., n = 2.

Data set [5] deals with conversion of salicylate to 4HC. The data set can be described thus: In vitro complementation assay, salicylate to 4HC in crude extract of E. coli/pZE-EPBS. Particulars: purified enzyme supplemented into crude extract with required cofactors; crude extract alone 0.18 mg/L/h.

T3 sequence (Q51508 whole entry): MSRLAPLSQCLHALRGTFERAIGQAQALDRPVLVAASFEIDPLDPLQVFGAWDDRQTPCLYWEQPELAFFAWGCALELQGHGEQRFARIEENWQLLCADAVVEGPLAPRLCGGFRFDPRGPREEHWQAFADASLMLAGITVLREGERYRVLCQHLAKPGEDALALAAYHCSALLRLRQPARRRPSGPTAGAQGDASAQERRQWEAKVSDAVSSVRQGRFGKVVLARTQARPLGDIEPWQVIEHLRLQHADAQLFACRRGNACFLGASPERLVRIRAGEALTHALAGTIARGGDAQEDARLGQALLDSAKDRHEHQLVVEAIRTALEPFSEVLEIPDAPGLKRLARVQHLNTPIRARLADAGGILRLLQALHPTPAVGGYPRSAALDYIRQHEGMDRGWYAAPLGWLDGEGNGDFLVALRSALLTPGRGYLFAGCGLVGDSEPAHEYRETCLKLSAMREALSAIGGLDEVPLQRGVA

Regarding `C=C(O[C@@H]1C=C(C(=O)O)C=C[C@H]1O)C(=O)O` [chorismic acid], the kcat is 0.13 S^−1 and 0.13 ± 0.01 S^−1 in data set [1]; 2.12 S^−1 and 2.12 ± 0.07 S^−1 in data set [2]; 0.20 S^−1 and 0.20 ± 0.01 S^−1 in data set [3] (0.1 μM enzyme). Besides, the Km in data set [3] came to 3.69 ± 0.53 µM.
As for “MdpB2, salicylate:CoA ligase from Actinomadura madurae ATCC39144 (purified, N-terminal His tag) (Actinomadura madurae)”, in the data set with O=C(O)c1ccccc1O, the Km stood at 8.53 ± 0.94 µM, the kcat is 1.18 ± 0.03 s⁻¹ and the kcat/Km is 138000 M⁻¹ s⁻¹.

B1: MenF, isochorismate synthase from E. coli MG1655 (purified, N-terminal His tag) (Escherichia coli K-12) (protein)
chain: MQSLTTALENLLRHLSQEIPATPGIRVIDIPFPLKDAFDALSWLASQQTYPQFYWQQRNGDEEAVVLGAITRFTSLDQAQRFLRQHPEHADLRIWGLNAFDPSQGNLLLPRLEWRRCGGKATLRLTLFSESSLQHDAIQAKEFIATLVSIKPLPGLHLTTTREQHWPDKTGWTQLIELATKTIAEGELDKVVLARATDLHFASPVNAAAMMAASRRLNLNCYHFYMAFDGENAFLGSSPERLWRRRDKALRTEALAGTVANNPDDKQAQQLGEWLMADDKNQRENMLVVEDICQRLQADTQTLDVLPPQVLRLRKVQHLRRCIWTSLNKADDVICLHQLQPTAAVAGLPRDLARQFIARHEPFTREWYAGSAGYLSLQQSEFCVSLRSAKISGNVVRLYAGAGIVRGSDPEQEWQEIDNKAAGLRTLLQME
On to B1, for which the Michaelis constant (Km) in data set [4] (other: MenF) came to 6.75 ± 2.99 µM.

B2: EntC, isochorismate synthase from E. coli MG1655 (purified, N-terminal His tag) (Escherichia coli K-12) (protein)
chain: MDTSLAEEVQQTMATLAPNRFFFMSPYRSFTTSGCFARFDEPAVNGDSPDSPFQQKLAALFADAKAQGIKNPVMVGAIPFDPRQPSSLYIPESWQSFSRQEKQASARRFTRSQSLNVVERQAIPEQTTFEQMVARAAALTATPQVDKVVLSRLIDITTDAAIDSGVLLERLIAQNPVSYNFHVPLADGGVLLGASPELLLRKDGERFSSIPLAGSARRQPDEVLDREAGNRLLASEKDRHEHELVTQAMKEVLRERSSELHVPSSPQLITTPTLWHLATPFEGKANSQENALTLACLLHPTPALSGFPHQAATQVIAELEPFDRELFGGIVGWCDSEGNGEWVVTIRCAKLRENQVRLFAGAGIVPASSPLGEWRETGVKLSTMLNVFGLH
For B2, the Km in data set [4] (other: EntC) worked out at 11.93 ± 1.37 µM.

B3: BIS3: Biphenyl synthase from Sorbus aucuparia, 4HC-forming enzyme (protein, UniProt D2DRC5 1-388, looked up)
4-hydroxycoumarin synthase 2: MAPVVKNEPQHAKILAIGTANPPNVFHQKDYPDFLFRVTKNEHRTDLREKFDRICEKSRTKKRYLHLTEEMLKANPNIYTYGAPSLNVRQDICNIEVPKLGQEASLKAIKEWGQPISKITHLIFCTASCVDMPGCDFQLIKLLGLDPSVTRTMIYEAGCYAGATVLRMAKDFAENNKGARVLVVCAEITTVFFHGLTDTHLDILVGQALFADGASAVIVGANPEPEIERPLFEIVACRQTILPNSEHGVVANIREMGFNYYLSGDVPKFVGGNVVDFMTKTFEKVDGKNKDWNSLFFSVHPGGPAIVDQVEEKLGLKEGKLRATRHVLSEYGNMGAPTVHFILDEMRNKSIEEGKTTTGEGLEWGVVIGIGPGLTVETAVLRSEFITY
Take B3: the “rate of conversion of salicylate to 4HC” value in data set [5] was found to be 7.83 mg/L/h.

Broadly, the Km is the concentration of substrate that gives half-maximal velocity. A word on the kcat/Km: it is the second-order rate constant that governs catalysis at low substrate concentration.

The values are drawn from patent US9353390B2, “Genetically engineered microbes and methods for producing 4-hydroxycoumarin” (University of Georgia Research Foundation, Inc., priority 2013, dated 2016).
